Laboratory results reported in patent EP4471049A1 (Zealand Pharma A/S, priority 2023, dated 2024).
Like-named read-outs stand apart in the source and are kept apart here. *1 amine or outer side, *2 acyl side, *3 side chain or, on linkers, in order; H or OH if unused. Where a SMILES comes first, the peptide text is derived from it. Bridges are numbered along the chain shown (N, C = ends). Where no end group is shown, it is not given here. [ ]: non-standard residue; d: D form. 4‑Aminomethyl‑phenylacetyl = 4-aminomethyl-phenylacetyl unit, its amine closes the lactam, O=C(Cc1ccc(CN[*:1])cc1)[*:2]; 2Nal = N[C@@H](Cc1ccc2ccccc2c1)C(=O)O; AEF = NCCOc1ccc(C[C@H](N)C(=O)O)cc1; X1 = O=C(Cc1ccc(CN[*:1])cc1)[*:2]; 3Pal = N[C@@H](Cc1cccnc1)C(=O)O; αMeL = CC(C)C[C@](C)(N)C(=O)O; β3hL = CC(C)C[C@H](N)CC(=O)O; 3Amb = NCc1cccc(C(=O)O)c1; Dab = NCC[C@H](N)C(=O)O

T1: human IL-23R (Homo sapiens, UniProt Q5VWK5)
T1 sequence (Q5VWK5 22-629): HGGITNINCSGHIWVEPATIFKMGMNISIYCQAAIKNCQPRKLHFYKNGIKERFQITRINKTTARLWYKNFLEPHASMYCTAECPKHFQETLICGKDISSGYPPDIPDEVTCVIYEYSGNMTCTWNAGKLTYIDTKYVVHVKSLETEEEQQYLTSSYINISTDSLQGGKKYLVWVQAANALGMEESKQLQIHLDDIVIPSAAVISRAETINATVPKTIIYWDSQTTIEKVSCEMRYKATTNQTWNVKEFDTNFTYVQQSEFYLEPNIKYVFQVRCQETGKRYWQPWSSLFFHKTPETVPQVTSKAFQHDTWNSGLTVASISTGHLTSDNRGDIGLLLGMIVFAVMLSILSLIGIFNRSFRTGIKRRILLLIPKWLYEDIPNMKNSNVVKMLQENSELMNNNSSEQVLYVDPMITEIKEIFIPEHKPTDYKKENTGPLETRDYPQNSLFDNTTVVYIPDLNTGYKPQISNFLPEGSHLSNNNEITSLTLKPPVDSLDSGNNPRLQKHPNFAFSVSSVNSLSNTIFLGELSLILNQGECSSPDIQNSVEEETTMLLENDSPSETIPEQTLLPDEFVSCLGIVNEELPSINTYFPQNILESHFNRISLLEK

T2: Nluc-IL23R fusion protein (human, UniProt Q5VWK5 22-629)
T2 construct: range 22-629; expressed with a secretion signal in HEK293 cells; used as crude membrane preparation; also called hIL-23R; human IL-23R; not shown: Nanoluc protein from the expression plasmid N1371 (Promega), N-terminal of IL-23R
T2 sequence (looked up): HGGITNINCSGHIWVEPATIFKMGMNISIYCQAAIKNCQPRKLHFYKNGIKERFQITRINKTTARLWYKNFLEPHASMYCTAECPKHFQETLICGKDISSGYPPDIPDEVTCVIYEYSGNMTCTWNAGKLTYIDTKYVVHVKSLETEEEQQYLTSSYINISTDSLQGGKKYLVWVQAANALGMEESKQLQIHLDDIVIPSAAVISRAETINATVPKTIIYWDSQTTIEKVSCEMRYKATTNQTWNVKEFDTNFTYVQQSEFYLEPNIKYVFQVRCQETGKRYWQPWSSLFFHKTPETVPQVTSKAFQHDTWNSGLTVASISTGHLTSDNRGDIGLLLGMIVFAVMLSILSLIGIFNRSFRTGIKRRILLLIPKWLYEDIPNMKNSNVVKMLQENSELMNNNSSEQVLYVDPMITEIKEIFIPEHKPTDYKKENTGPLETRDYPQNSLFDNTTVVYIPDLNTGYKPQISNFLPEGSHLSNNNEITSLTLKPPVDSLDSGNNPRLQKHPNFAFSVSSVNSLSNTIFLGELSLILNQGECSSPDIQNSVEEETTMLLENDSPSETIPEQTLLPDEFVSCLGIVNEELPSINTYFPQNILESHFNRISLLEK

T3: human IL-23R endogenously expressed on DB cells (human, UniProt Q5VWK5 24-629)
T3 sequence (looked up): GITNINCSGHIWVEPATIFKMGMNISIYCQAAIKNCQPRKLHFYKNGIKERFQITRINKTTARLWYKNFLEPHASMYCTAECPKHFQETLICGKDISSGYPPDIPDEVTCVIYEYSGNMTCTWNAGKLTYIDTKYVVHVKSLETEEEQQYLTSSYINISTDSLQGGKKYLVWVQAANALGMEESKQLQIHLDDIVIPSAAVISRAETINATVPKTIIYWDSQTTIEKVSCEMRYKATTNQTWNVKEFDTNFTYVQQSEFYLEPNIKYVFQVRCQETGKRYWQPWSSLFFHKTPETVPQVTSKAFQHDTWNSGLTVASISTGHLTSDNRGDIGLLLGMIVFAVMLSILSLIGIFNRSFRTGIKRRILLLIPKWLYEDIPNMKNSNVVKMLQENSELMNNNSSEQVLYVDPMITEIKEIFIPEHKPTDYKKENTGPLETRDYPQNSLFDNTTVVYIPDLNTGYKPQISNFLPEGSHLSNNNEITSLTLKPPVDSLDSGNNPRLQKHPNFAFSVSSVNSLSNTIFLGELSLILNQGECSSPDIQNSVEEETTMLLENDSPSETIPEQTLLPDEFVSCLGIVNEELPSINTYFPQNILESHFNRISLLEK


Columns and labels:
human IL-23R = target: T1, human IL-23R; experiment: biochemical
Procedure, shortened: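 BRET displacement of a TAMRA-labelled reference compound from N-terminal Nanoluc-IL-23R fusion protein in membranes from stably transfected HEK293 cells. Incubation 2 h at room temperature, then Nanoluc substrate was added and the TAMRA/Nanoluc ratio read. IC50 and maximal displacement came from 4-parameter logistic fits.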

[1] = target: IL-23 mediated STAT3 signalling (Homo sapiens, UniProt Q5VWK5); experiment: Functional inhibition of IL-23 mediated STAT3 signalling (phospho-STAT3 Tyr705 MSD, DB cells); assay type: cell-based
Experimental: The ability of compounds to inhibit IL-23 mediated signalling was determined in the human-derived DB cell line (CRL-2289) (hereafter referred to as DB cells), which endogenously expresses the human IL-23R and human IL-12R β1 subunits. Upon binding of IL-23, the IL-23R forms a heterodimer signalling complex together with IL-12R β1, which through the JAK2/STAT3 pathway promotes phosphorylation of STAT3 to form phospho-STAT3. In the assay, the functional antagonism of IL-23 mediated phospho-STAT3 formation in DB cells by the compound is quantified using reagents capable of measuring the phosphorylation state of Tyr705 of STAT3 in the form of a phospho-STAT3 (Tyr705) MSD (Meso Scale Discovery) kit.
[…]. For compounds tested in this assay, the response was normalized relative to control values to calculate the IC50 and maximal inhibitory response from a concentration response curve of the compound in presence of a fixed concentration of human IL-23.
The assay procedure was as follows. DB cells were maintained in growth medium consisting of RPMI-1640 [Invitrogen 61870-010] supplemented with 10% V/V Foetal Bovine Serum (FBS) [(heat inactivated), Invitrogen 10270-106], and 1% V/V Penicillin-Streptomycin (Pen-Strep) Solution [Invitrogen 15140]. On the day of assay, cells were resuspended in Assay buffer consisting of RPMI-1640 [Invitrogen 61870-010] supplemented with 0.1 % w/V BSA [Sigma-Aldrich A9430] to a density of 7.5x10^6 cells/mL. Compounds to be tested for inhibition of hIL-23 mediated signalling were serially diluted in Assay buffer to 3X the final concentration. A solution of hIL-23 corresponding to 3X the EC80 of hIL-23 (1.7 nM) was also prepared in Assay buffer. To initiate the assay, 20 µL of DB cell suspension (corresponding to 150.000 cells/well) was added to the wells of a 96-well V-bottom Polypropylene plate [Corning 3363] followed by addition of 3X 20 µL of the diluted test compounds to separate wells. Following preincubation of the DB cells with inhibitor for 15 min in a cell incubator (37 °C, 5% CO2), 20 µL of the prepared 3X the EC80 of hIL-23 solution was added to each well and incubated for 90 min in a cell incubator (37 °C, 5% CO2). For some wells buffer only or IL-23 only corresponding to the EC80 was added to obtain readouts needed for normalization. To terminate the assay, the plate was spun at 1000 G for 5 min to pellet cells, the supernatant removed using an 8-channel manual pipette, and then added 50 µL/well Complete Lysis Buffer from the MSD STAT3 kit (Cat# K150SVD, Mesoscale) to the cell pellet. To completely lyse cells to release phospho-STAT3 for detection, the plate was shaken for 10 min at room temperature (500 rpm) sealed with aluminium foil and placed at -80 °C for a minimum of 15 min. Detection of the phospho-STAT3 level in the cell lysate from the individual wells was determined using the MSD STAT3 kit (Cat# K150SVD, Mesoscale) and read on a Meso QuickPlex SQ 120 plate reader (Mesoscale).
For data analysis raw data counts from the Meso QuickPlex SQ 120 plate reader were normalized relative to the response by the EC80 of hIL-23 alone (no compound added) and the buffer level. Compound potency (IC50) and maximal inhibitory response (% inhibition) were estimated by computer-aided curve fitting using a 4-parameter logistic (4PL) non-linear model. […]. Typically compounds with a low IC50 are desired. Typically compounds capable of completely inhibiting the IL23-induced response are desired. […]. Table 3-2: hIL-23 (pSTAT3) antagonist IC50 and % inhibition data

[2] = target: T2, Nluc-IL23R fusion protein; experiment: BRET competition vs TAMRA-labelled peptide, Nluc-IL23R membranes
[3] = target: T3, human IL-23R endogenously expressed on …; experiment: cell-based or functional assay
[4] = target: T2, Nluc-IL23R fusion protein; experiment: BRET competition vs TAMRA-labelled peptide, Nluc-IL23R membranes; remark: listed apart in the source
[5] = target: T2, Nluc-IL23R fusion protein; experiment: Ki from BRET competition (Cheng-Prusoff), Nluc-IL23R membranes

Molecule	% displacement (hIL-23R binding) (human IL-23R)	IC50 ([1]; Example 2 (Tables 2-1 to 2-4), read-out: IC50 (pSTAT3))	IC50 (human IL-23R)	IC50 ([1]; Table 3-2, EC80 of hIL-23, read-out: hIL-23 (pSTAT3) antagonist IC50)	% displacement (hIL-23R binding) [2]	IC50 [2]	hIL-23 (pSTAT3) antagonist % inhibition [3]	hIL-23 (pSTAT3) antagonist IC50 [3]	IC50 [4]	Ki [5]
CC(C)C[C@@H](CC(N)=O)NC(=O)[C@H](Cc1cccnc1)NC(=O)[C@H](CCN)NC(=O)[C@@H]1CCC(=O)NCc2ccc(cc2)CC(=O)N[C@@H](CO)C(=O)N[C@H]2CCC(=O)NCC[C@H](NC(=O)[C@H](CCC(N)=O)NC(=O)[C@H](Cc3c[nH]c4ccccc34)NC2=O)C(=O)N[C@@H](Cc2ccc(OCCN)cc2)C(=O)N[C@@H](Cc2ccc3ccccc3c2)C(=O)N[C@@](C)(CC(C)C)C(=O)N1 [Compound 11, [4-Aminomethyl-phenylacetyl](1c)*SE(2c)WQ[Dab](2c)[Y(2-aminoethoxy)][2-Nal][2-Me-Leu]E(1c)[Dab][3-(3-Pyridyl)-Ala][beta-hLeu]-[NH2]] ([X1]SEWQ[Dab][AEF][2Nal][αMeL]E[Dab][3Pal][β3hL]-NH2; lactam 3-6, N-10)	103%	0.68 nM								
CC(C)C[C@]1(C)NC(=O)[C@H](Cc2ccc3ccccc3c2)NC(=O)[C@H](Cc2ccc(OCCN)cc2)NC(=O)[C@@H]2CCNC(=O)CC[C@H](NC(=O)[C@H](CO)NC(=O)Cc3ccc(cc3)CNC(=O)CC[C@@H](C(=O)NCC[C@H](N)C(=O)N[C@@](C)(Cc3cccnc3)C(N)=O)NC1=O)C(=O)N[C@@H](Cc1c[nH]c3ccccc13)C(=O)N[C@@H](CCC(N)=O)C(=O)N2 [Compound 15, [4-Aminomethyl-phenylacetyl](1c)*SE(2c)WQ[Dab](2c)[Y(2-aminoethoxy)][2-Nal][2-Me-Leu]E(1c)[Iso-Dab][2-Me-3-(3-Pyridyl)-Ala]-[NH2]]	96%		0.45 nM	12 nM						
[3Amb]SCWQC[AEF][2Nal][αMeL]E[dR]-NH2 (lactam N-10; bridge 3-6; not fully specified (bridges); printed as [(3-Aminomethyl)benzoyl](1c)*SC(2a)WQC(2a)[Y(2-aminoethoxy)][2-Nal][2-Me-Leu]E(1c)[{d}R]-[NH2], Y = Y(2-aminoethoxy), R = D-Arg) [Ref 41]					110%	2.8 nM	99%	29 nM	2.8 nM	2.31 nM
H-DESCWQCWWLKR-NH2 (lactam 2-11; bridge 4-7; not fully specified (bridges)) [Ref 4]					100%	180 nM	87%	850 nM	180 nM	

Further lines, results first:

% displacement (hIL-23R binding) (human IL-23R)	IC50 ([1]; Example 2 (Tables 2-1 to 2-4), read-out: IC50 (pSTAT3))	IC50 (human IL-23R)	IC50 ([1]; Table 3-2, EC80 of hIL-23, read-out: hIL-23 (pSTAT3) antagonist IC50)	% displacement (hIL-23R binding) [2]	IC50 [2]	hIL-23 (pSTAT3) antagonist % inhibition [3]	hIL-23 (pSTAT3) antagonist IC50 [3]	IC50 [4]	Ki [5]	Molecule
					0.39 nM	95%	21 nM	0.39 nM	0.318 nM	[4‑Aminomethyl‑phenylacetyl]SCWQC[AEF][2Nal][αMeL]ES-NH2 (lactam (positions not given here); bridge 3-6; not fully specified (bridges); printed as [4-Aminomethyl-phenylacetyl](1c)*SC(2a)WQC(2a)[Y(2-aminoethoxy)][2-Nal][2-Me-Leu]E(1c)S-[NH2], Y = Y(2-aminoethoxy)) [Ref 81]
				103%	3.5 nM	97%	18 nM	3.5 nM		Ac-KSCWQCW[2Nal]LER-NH2 (lactam 1-10; bridge 3-6; not fully specified (bridges); printed as [Ac]-K(1c)SC(2a)WQC(2a)W[2-Nal]LE(1c)R-[NH2]) [Ref 18]
					87 nM		370 nM	87 nM		Ac-DESCWQCW[2Nal]LKR-NH2 (lactam 2-11; bridge 4-7; not fully specified (bridges); printed as [Ac]-DE(1c)SC(2a)WQC(2a)W[2-Nal]LK(1c)R-[NH2]) [Ref 17]
				103%	12 nM	89%	45 nM	12 nM		[3Amb]SCWQCW[2Nal]LER-NH2 (lactam N-10; bridge 3-6; not fully specified (bridges); printed as [(3-Aminomethyl)benzoyl](1c)*SC(2a)WQC(2a)W[2-Nal]LE(1c)R-[NH2]) [Ref 37]
